According to PMC8080960 (The journal of physical chemistry. B, 2021):

Molecular target: the molecule itself
Assay: amyloid fibril formation

B1: C-terminal domain of TDP-43 (TDP-43CTD), wild type, residues 267-414, tagless (domain or fragment)
chain: GHMNRQLERSGRFGGNPGGFGNQGGFGNSRGGGAGLGNNQGSNMGGGMNFGAFSINPAMMAAAQAALQSSWGMMGMLASQQNQSGPSGNNQNQGNMQREPNQAFGSGNNSYSGSNSGAAIGWGSASNAGSGSGFNGGFGSSMDSKSSGWGM
B1: binds.
